These results are taken from patent publication US20090202556A1 (Kyowa Kirin, published 2009).

Experiment [1] concerns the target T1, human CLDN4 (Claudin-4) expressed by human cancer cell lines (Capan-2, HPAF-II, MCF7, HT-29, SW480, 22Rv1, DU … (human, UniProt O14493 1-209)).
T1 construct: Endogenous protein on cell lines; MCF7 is said to express both CLDN3 and CLDN4; also called CLDN4 expressed in breast cancer cells, colorectal cancer cells and prostate cancer cells
T1 sequence: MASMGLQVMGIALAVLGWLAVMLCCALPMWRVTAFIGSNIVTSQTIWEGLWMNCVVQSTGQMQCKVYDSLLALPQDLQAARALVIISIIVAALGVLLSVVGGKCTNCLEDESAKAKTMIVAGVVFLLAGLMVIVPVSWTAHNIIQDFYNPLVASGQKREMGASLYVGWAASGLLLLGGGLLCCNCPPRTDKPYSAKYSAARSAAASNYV
Nature of the experiment: FCM on live cancer cell lines, 5 µg/ml. As for the experimental part:
(§1) Human pancreatic cancer cell lines Capan-2 and HPAF-II human lymphoma cell line Daudi (ATCC CCL-213), human breast cancer cell line MCF7 (ATCC HTB-22), human colorectal cancer cell lines HT-29 (ATCC HTB-38) and SW480 (ATCC CCL-228) and human prostate cancer cell line s 22Rv1 (ATCC CRL-2505), DU 145 (ATCC HTB-81) and PC-3 (ATCC CRL-1435) were cultured for 3 to 4 days, and adhered cells were peeled off using 0.02% EDTA solution (manufactured by Nacalai Tesque) to recover the cells. The thus recovered cells were washed with PBS and, in order to prevent nonspecific adsorption of antibodies, blocked at ice temperature for 30 minutes using BSA-PBS. The cells were dispensed at 1 to 5×10⁵ cells/100 μl BSA-PBS into a 96-well U bottom plate and centrifuged (1,500 rpm, 5 minutes), the supernatant was removed and then a mouse anti-serum to be immunized, a culture supernatant of hybridoma KM3900 (8.6 μg/ml), anti-CLDN4 monoclonal antibodies KM3900 and KM3907 diluted to 5 μg/ml or a mouse IgG2a isotype control (manufactured by DAKO) was dispensed as the primary antibody at 100 μl/well and allowed to react at ice temperature for 60 minutes. […] After the reaction, the cells were washed once with BSA-PBS and suspended in PBS, and the fluorescent intensity was measured by FCM (manufactured by Beckman Coulter).

The target in experiment [2] is T1, human CLDN4 (Claudin-4) expressed by …. In words: FCM on live Capan-2 and HPAF-II cells, 8.6 µg/ml. How it is done:
as §1, with “Coulter). […]” for “Coulter).”

B1: anti-CLDN4 monoclonal antibody KM3907 produced by hybridoma KM3907 (FERM BP-10885) (antibody, mouse IgG2a, V domains shown)
VH: QVQLQQSGPELVKPGASVKISCKASGYAISTSWMNWVKQRPGKGLEWIGRINPGDGNTNYNGKFMAKATLTADKPSSTAYMQLSSLTSEDSAVYFCTRGDRWSGAMDYWGQGTSVTVSS
VL: GNVLTQSPAIMSASPGEKVTMTCRASSSVSSSYLHWYQQKSGASPKLWIYSTSNLASGVPVRFSGSGSGTSYSLTISSVEAEDAATYYCQQYSGFPLTFGAGTKLELK
Consider B1, for which the binding result in experiment [1] is “binds”.

B2: anti-CLDN4 monoclonal antibody KM3900 produced by hybridoma KM3900 (FERM BP-10751) (antibody, V domains shown)
VH: EVQLQQSGPELVKPGASVKISCKASGYTFTDYYMNWVKQSHGKSLEWIGDVVPNNGVPTYNQKFKGKATLTVDKSSSTAYMELRSLTSEDSAVYYCARPHYYYAGRSGAMDYWGQGTSVTVSS
VL: QIVLTQSPAIMSASLGERVTMTCTASSTVSSTYLHWYQQKPGSSPKLWIYSTSNLASGVPARFSGSGSGTSYSLTISSMEAEDAATYYCHQYHRSPPTFGGGTKLEIK
notes: Used as hybridoma culture supernatant (8.6 µg/ml) or purified antibody (5 µg/ml); also called anti-CLDN4 mouse antibody KM3900
Regarding B2, in experiment [2], the binding result is “binds”.
